Measured values: paper PMC9518701 (2022)

Key:
[1] = target: SARS-CoV-2 spike protein receptor binding domain (RBD) (SARS-CoV-2, UniProt P0DTC2 319-541)
[2] = target: human neonatal Fc receptor (FcRn) (human, UniProt P55899 24-365); test: SPR; pH 6.0
Chain of human neonatal Fc receptor (FcRn) (P55899 24-297, chain 1 of 2): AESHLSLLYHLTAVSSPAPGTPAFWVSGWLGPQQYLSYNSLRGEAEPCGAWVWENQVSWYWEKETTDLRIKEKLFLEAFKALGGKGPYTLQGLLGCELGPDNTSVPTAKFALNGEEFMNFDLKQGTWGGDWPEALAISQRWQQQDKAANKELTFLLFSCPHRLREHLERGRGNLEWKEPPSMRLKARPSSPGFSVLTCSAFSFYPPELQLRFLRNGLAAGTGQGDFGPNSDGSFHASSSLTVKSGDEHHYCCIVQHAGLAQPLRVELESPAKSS
Chain of human neonatal Fc receptor (FcRn) (chain, as listed by the source, chain 2 of 2): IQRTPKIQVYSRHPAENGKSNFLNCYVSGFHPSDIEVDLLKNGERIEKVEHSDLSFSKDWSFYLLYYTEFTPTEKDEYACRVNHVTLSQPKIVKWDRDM

Binder | IC50 [1] | Kd [2]
romlusevimab (BRII-198) (antibody) chain 1: QVQLVQSGSELKKPGASVKVSCKASGYTFTTYVMNWVRQAPGQGLEWMGWINTNTGNPTYAQGFTGRFVFSLDTSVSTASLQISSLKAEDTAVYYCSSEITTLGGMDVWGQGTTVTVSS chain 2: SYVLTQPPSVSVAPGKTARITCGGNNIGSKSVHWYQQKPGQAPVLVIYYDSDRPSGIPERFSGSNSGNTATLTISGVEAGDEADYYCQVWDSISDHRVFGGGTKLTVL | > 200 nM | 
P2B-1G5 (precursor of romlusevimab) (antibody, soluble extracellular FCGRT with beta-2-microglobulin assumed by convention (subunits and limits not given); assayed at pH 6.0) chain 1: QVQLVQSGSELKKPGASVKVSCKASGYTFTTYVMNWVRQAPGQGLEWMGWINTNTGNPTYAQGFTGRFVFSLDTSVSTASLQISSLKAEDTAVYYCSCEITTLGGMDVWGQGTTVTVSS chain 2: SYVLTQPPSVSVAPGKTARITCGGNNIGSKSVHWYQQKPGQAPVLVIYYDSDRPSGIPERFSGSNSGNTATLTISGVEAGDEADYYCQVWDSISDHRVFGGGTKLTVL |  | 2.51 nM
